Measured values: the supplement of paper PMC9170038

Test system: MS2 coat protein
Assay: apparent KD of MS2 coat protein; designed switch direction (-1 OFF switch, 1 ON switch): -1; higher = weaker reporter binding
In short: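 An oligonucleotide input, 200 uM small-molecule ligand, or no input was present during titration of SNAP-549-labelled MS2 coat protein, which was doubled from 0.7 or 1.5 nM to 3 µM. Designed RNA switches had been transcribed on Illumina chips by stalled E. coli RNA polymerase. Apparent KD per design is the median over clusters of curves fitted to normalised cluster fluorescence.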

[1] = Eterna round: R95, input ligand: FMN 200 uM
[2] = Eterna round: R95, input ligand: microRNA oligo, concentration not stated
[3] = Eterna round: R95, input ligand: none
[4] = input ligand: microRNA oligo, concentration not stated

Sequence	apparent KD of MS2 coat protein [1]	apparent KD of MS2 coat protein [2]	apparent KD of MS2 coat protein [3]	apparent KD of MS2 coat protein (input ligand: FMN 200 uM)	apparent KD of MS2 coat protein (input ligand: none)	apparent KD of MS2 coat protein [4]
CUGAGGUAGCGGUCCUAUGACAUGAGGAUCACCCAUGUACCUUGCUUCGAGCUAUUUGCUCGUCUUAUGAUUCUCGG [Mat - Sensor v3 - turn-off var 1 - JL Mod - D34] (puzzle: Sensor v3, turn-off variant 1)	538 nM	483 nM	493 nM			
CUGAGGUAGCGGUCCUAUGACAUGAGGAUCACCCAUGUACCUUGCUUCGAGCUUUUUGCUCGUCUUAUGAUUCUCGG [JL Atriat mod 5] (puzzle: Sensor v3, turn-off variant 1)	486 nM	456 nM	576 nM			
CUGAGGUAGCGGUCCUAUGACAUGAGGAUCACCCAUGUACCUUGCUUUGAGCUUAUUGCUCGUCUUAUGAUUCUCGG [Mat - Sensor v3 - turn-off var 1 - JL Mod - D41] (puzzle: Sensor v3, turn-off variant 1)	399 nM	299 nM	460 nM			
CUGAGGUAGCGGUCCUAUGACAUGAGGAUCACCCAUGUACCUUGCUUUGAGCUUUAUGCUCGUCUUAUGAUUCUCGG [Mat - Sensor v3 - turn-off var 1 - JL Mod - D42] (puzzle: Sensor v3, turn-off variant 1)	585 nM	537 nM	546 nM			
CUGAGUAUAGGAUAUACAUGAGGAUCACCCAUGUAGAAACAAGGGUCUUACAACUAAAGUAGAAGGAUAUUUGG [ExFusion 7 - Jieux - Exclusion 3] (Eterna round: R97, puzzle: Exclusion 3)				112 nM	48.2 nM	
CUGAGUCAAGGAUAUACAUGAGGAUCACCCAUGUAAAGUAGCUUGCGUACAGGCAGAUGUAGAAGGUGAUUCGG [Mod of JL 9 - Jieux - Exclusion 3] (Eterna round: R97, puzzle: Exclusion 3)				100 nM	90.7 nM	
CUGAUGUCAGGAUAUCAGAAAAGGUGCAAGGACGCACCAAAUGAGAAGGGACAUGAGGAUCACCCAUGUAAAAC [Maqucema] (puzzle: Exclusion 4)		25.4 nM				
CUGCUCCGUGUAGGAUAUCCAUGCAACCAAUAUGGAGAAGGACAUGAGGAUCACCCAUGUAUGUUAUUAUCACGUGAAGCGUCC [Design 23] (Eterna round: R96, puzzle: Exclusion NG 1)				28.6 nM	31.2 nM	24 nM
CUGCUCCGUGUAGGAUAUCCCGGCAACCAAUCGGGAGAAGGACAUGAGGAUCACCCAUGUAUGUUAUUAUCACGUGAAGCGUCC [Design 27] (Eterna round: R96, puzzle: Exclusion NG 1)						16.3 nM
CUGCUCCGUGUAGGAUAUCCGGGCAACCAAUCCGGAGAAGGACAUGAGGAUCACCCAUGUAUGUUAUUAUCACGUGAAGCGUCC [Design 25] (Eterna round: R96, puzzle: Exclusion NG 1)						15.6 nM
CUGCUCCGUGUAGGAUAUGCAUACUCCCACUAUGCAGAAGGACAUGAGGAUCACCCAUGUAUGUUAUUAUCACGUGUAGCGUAC [Design 16] (Eterna round: R96, puzzle: Exclusion NG 1)						21.7 nM
CUGCUCCGUGUAGGAUAUGCAUACUCCCAUUAUGCAGAAGGACAUGAGGAUCACCCAUGUAUGUUAUUAUCACGUGUUGCGUAC [Design 14] (Eterna round: R96, puzzle: Exclusion NG 1)						20 nM
CUGCUGGAGCGGUGCUUUGGUCGUACAUGAGGAUCACCCAUGUAGGAUAUGGUAAAAUUUGCUUGCUAGAAGGAUAGAGUGGUC [salish99_ExNG3_r04_614] (Eterna round: R96, puzzle: Exclusion NG 3)				96.9 nM	61.3 nM	42.4 nM
CUGGUCCGAGGAUAUAUUAAGUGAAACAUGAGGAUCACCCAUGUUAUUUGAUGGAUGAAAAUAGAAGGCGGACUAG [Mat - Exclusion 5 - JL mod - D58] (puzzle: Exclusion 5)	22.9 nM	41.1 nM	45.2 nM			
CUGGUCCGAGGAUAUAUUAAGUGAUACAUGAGGAUCACCCAUGUAAUUUAAUGGAUGUAAAUAGAAGGCGGACUAG [JL-ex5-3.11] (puzzle: Exclusion 5)	43.2 nM	39.7 nM	38.7 nM			
CUGGUCCGAGGAUAUAUUAUGUGAAACAUGAGGAUCACCCAUGUAAUAUGAUGGAUAUAAAUAGAAGGCGGACUAG [Mat - Exclusion 5 - JL mod - D31] (puzzle: Exclusion 5)	22.4 nM	19.9 nM	31.1 nM			
CUGGUCCGAGGAUAUAUUAUGUGAAACAUGAGGAUCACCCAUGUAAUAUGAUGGAUGUAAAUAGAAGGCGGACUAG [JL-ex5-3.07] (puzzle: Exclusion 5)	38.2 nM	37.3 nM	47.2 nM			
CUGGUCCGAGGAUAUAUUUUGUGAAACAUGAGGAUCACCCAUGUAAUAAAAUGGAAAUAAAUAGAAGGCGGACUAG [Mat - Exclusion 5 - JL mod - D42] (puzzle: Exclusion 5)	25.2 nM	20.8 nM	24.2 nM			
CUGGUCCGAGGAUAUAUUUUGUGAAACAUGAGGAUCACCCAUGUAAUAAAAUGGAUGUAAAUAGAAGGCGGACUAG [Mat - Exclusion 5 - JL mod - D40] (puzzle: Exclusion 5)	26.7 nM	29 nM	30 nM			
CUGGUGUGAGGAUAUCAAAGACCUCGGUAAAGAACCGAGGAUGAGAAGGCACAUGAGGAUCACCCAUGUAACAA [Lauscege] (puzzle: Exclusion 4)		22.6 nM				
CUGGUGUGAGGAUAUCAGGACACAUCCGCGGGCGUGUCAAAUGAGAAGGCACAUGAGGAUCACCCAUGUGGGAC [Onquveatge] (puzzle: Exclusion 4)	57.1 nM	44.2 nM	53.2 nM			
CUGUAGCUACAAGCUUUUUGCACGUCAGGUAGUGACGCAACAUGAGGAUCACCCAUGUAUAGGGUGGGACAGGAUAG [JR_SV3TOV2_Sub049] (puzzle: Sensor v3, turn-off variant 2)	443 nM	153 nM	495 nM			
CUGUGCACGCUGCGAUCCUACAUGAGGAUCACCCAUGUGGUCUGGUGGCGUGGGUCACCGGACUUGGCUCGUCUUGA [salish99_S_TOV1_R5_070] (Eterna round: R97, puzzle: Sensor, turn-off variant 1)				147 nM	156 nM	
CUGUGUAGACAGGAUAUGCUGUACAAAAGUACAGCAGAAGGGUCUACAUGAGGAUCACCCAUGUAUACCUCAUG [)mei Ex6 B25] (Eterna round: R97, puzzle: Exclusion 6)				735 nM	88.8 nM	
CUGUGUCCGCAGGAUAUGUCAUCCUGAAGGAUCACAGAAGGGCGGACAUGAGGAUCACCCAUGUGAGCCAAAGA [EX6 A.11] (Eterna round: R97, puzzle: Exclusion 6)				16.7 nM	17.9 nM	
